Results taken from PMC3509434.

Key:
[1] = target: soluble gB truncated at amino acid 730, gB(730t) (herpes simplex virus 1 (HSV-1)) (UniProt P06437); experiment: SEC
[2] = target: soluble gB truncated at amino acid 739, gB(739t) (herpes simplex virus 1 (HSV-1), strain KOS) (UniProt P06437); experiment: SEC
[3] = target: soluble gB truncated at amino acid 739, gB(739t) (herpes simplex virus 1 (HSV-1), strain KOS) (UniProt P06437); experiment: native gel or EMSA
[4] = target: soluble gB truncated at amino acid 749, gB(749t) (herpes simplex virus 1 (HSV-1), strain KOS) (UniProt P06437); experiment: SEC
[5] = target: soluble gB truncated at amino acid 749, gB(749t) (herpes simplex virus 1 (HSV-1), strain KOS) (UniProt P06437); experiment: native gel or EMSA
[6] = target: soluble gB truncated at amino acid 759, gB(759t) (herpes simplex virus 1 (HSV-1), strain KOS) (UniProt P06437); experiment: SEC
[7] = target: soluble gB truncated at amino acid 759, gB(759t) (herpes simplex virus 1 (HSV-1), strain KOS) (UniProt P06437); experiment: native gel or EMSA
[8] = target: soluble gB truncated at amino acid 773, gB(773t) (herpes simplex virus 1 (HSV-1), strain KOS) (UniProt P06437); experiment: SEC
[9] = target: soluble gB truncated at amino acid 773, gB(773t) (herpes simplex virus 1 (HSV-1), strain KOS) (UniProt P06437); experiment: native gel or EMSA

Substance: soluble gB truncated at amino acid 730, gB(730t) (from UniProt P06437 31-730) (domain or fragment)
- stoichiometry N [1]: 3

Substance: soluble gB truncated at amino acid 739, gB(739t) (from UniProt P06437 31-739) (domain or fragment)
- stoichiometry N [2]: 3
- stoichiometry N [3]: 3

Substance: soluble gB truncated at amino acid 749, gB(749t) (from UniProt P06437 31-749) (domain or fragment)
- stoichiometry N [4]: 3
- stoichiometry N [5]: 3

Substance: soluble gB truncated at amino acid 759, gB(759t) (from UniProt P06437 31-759) (domain or fragment)
- stoichiometry N [6]: 3
- stoichiometry N [7]: 3

Substance: soluble gB truncated at amino acid 773, gB(773t) (from UniProt P06437 31-773) (domain or fragment)
- stoichiometry N [8]: 3
- stoichiometry N [9]: 3
